According to patent US20040191812, “Target-dependent transcription using deletion mutants of N4 RNA polymerase” (published 2004):
Where a chain is given by its changes, count along the chain named.

T1: N4 mini-vRNAP (His-tagged) (Bacteriophage N4, UniProt Q859P9 SEQ:34-1143)
T1 chain: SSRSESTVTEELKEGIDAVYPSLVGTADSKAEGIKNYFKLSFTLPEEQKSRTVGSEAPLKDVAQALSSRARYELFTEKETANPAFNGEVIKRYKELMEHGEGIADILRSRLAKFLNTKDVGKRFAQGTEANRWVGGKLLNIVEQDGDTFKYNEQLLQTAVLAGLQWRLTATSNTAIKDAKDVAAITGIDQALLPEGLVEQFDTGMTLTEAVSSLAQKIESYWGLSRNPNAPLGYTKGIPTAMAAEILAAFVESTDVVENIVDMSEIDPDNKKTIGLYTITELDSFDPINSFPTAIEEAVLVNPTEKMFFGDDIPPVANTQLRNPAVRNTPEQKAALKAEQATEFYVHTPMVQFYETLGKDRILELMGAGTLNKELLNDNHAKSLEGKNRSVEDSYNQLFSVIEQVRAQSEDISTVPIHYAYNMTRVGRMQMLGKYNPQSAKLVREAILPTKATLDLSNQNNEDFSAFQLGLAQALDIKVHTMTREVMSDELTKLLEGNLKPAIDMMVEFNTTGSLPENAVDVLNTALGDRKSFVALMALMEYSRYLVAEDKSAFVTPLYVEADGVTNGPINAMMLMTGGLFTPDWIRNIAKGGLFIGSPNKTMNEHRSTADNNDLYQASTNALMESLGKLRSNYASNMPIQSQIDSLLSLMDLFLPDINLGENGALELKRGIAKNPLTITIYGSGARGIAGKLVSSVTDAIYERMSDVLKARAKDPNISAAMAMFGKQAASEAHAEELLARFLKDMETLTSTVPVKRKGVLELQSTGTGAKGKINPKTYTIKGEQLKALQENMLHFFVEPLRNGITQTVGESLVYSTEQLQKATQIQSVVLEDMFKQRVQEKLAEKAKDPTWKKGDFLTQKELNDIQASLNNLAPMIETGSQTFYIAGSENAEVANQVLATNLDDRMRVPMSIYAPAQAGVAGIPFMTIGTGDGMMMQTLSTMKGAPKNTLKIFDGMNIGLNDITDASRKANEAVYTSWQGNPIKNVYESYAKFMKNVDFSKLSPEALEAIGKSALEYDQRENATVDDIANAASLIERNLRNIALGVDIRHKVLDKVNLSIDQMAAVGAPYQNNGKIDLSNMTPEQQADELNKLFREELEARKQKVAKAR

T2: N4 mini-vRNAP Y678F (Bacteriophage N4, UniProt Q859P9 SEQ:34-1143)
T2 chain: T1 chain with Y682F


Columns and labels:
[1] = molecular target: N4 mini-vRNAP K670A K670A (mini-vRNAP numbering) (Bacteriophage N4) (UniProt Q859P9); assay: filter; conditions: wild-type affinity; method inferred
[2] = molecular target: T1, N4 mini-vRNAP (His-tagged); assay: filter; wild-type affinity; UV crosslinks; conditions: tags: N-terminal hexahistidine (pBAD); label: 32P end-label; hairpin
Text: To study the sequence determinants of promoter binding, 20 base-long promoter oligonucleotides, containing the wild-type vRNAP promoter P2 sequence and substituted at every position with a single 5-Iodo-dU, were used. Whenever substitutions were made in the stem, the corresponding pairing base was changed to A. These oligonucleotides were ³²P end-labeled and used to determine the enzyme's affinity for promoter DNAs by a filter binding assay and the ability to crosslink to mini-vRNAP upon UV irradiation at 320 nm.

N4 mini-vRNAP Y678F = molecular target: T2, N4 mini-vRNAP Y678F; assay: UV crosslinking as well as wild type; conditions: tags: N-terminal hexahistidine (pBAD); label: 32P end-label; hairpin

Molecule | binding signal (fold of wild type) [1] | binding result [2] | binding result (N4 mini-vRNAP Y678F)
TCCAAAAGAAGCGGAGCTTC [P2 wild-type 20-mer promoter oligo] | 1 | – | –
TCTAAAAGAAGCGGAGCTTC (ssDNA, 5-iodo-dU at +1 [3 (5-iodo-dU, promoter position +1)]) [P2 5-IdU at +1] | – | binds | –
TTCAAAAGAAGCGGAGCTTC (ssDNA, 5-iodo-dU at +2 [2 (5-iodo-dU, promoter position +2)]) [P2 5-IdU at +2] | – | binds | –
TCCAAAAGAAGCGGAGCTTC (ssDNA, 5-iodo-dU at +3 [1 (5-iodo-dU, promoter position +3)]) [P2 5-IdU at +3] | – | binds | binds
TCCAAAAGAAGCGTAGCTTC (ssDNA, 5-iodo-dU at -11 [14 (5-iodo-dU, promoter position -11)]) [P2 5-IdU at -11] | – | – | binds
